In paper PMC10359602, “High fidelity DNA strand-separation is the major specificity determinant in DNA methyltransferase CcrM’s catalytic mechanism”:

Experiments:
CcrM WT [1] = target: T1, CcrM WT (Caulobacter crescentus, UniProt P0CAW2 1-358); assay: equilibrium Trp fluorescence; 60 uM sinefungin; smaller change than dsDNA; Anisotropy: 10 nM FAM-DNA, 0-1000 nM protein, 30 uM SAH, 100 mM HEPES, 1 mM EDTA, 20 mM NaCl, pH 8, room temperature, 20 min; Trp fluorescence: same buffer plus 2 mM DTT, 500 nM protein, 60 uM sinefungin, 5 uM DNA; settings: protein: recombinant; chain copies: 2; single strand
CcrM WT [2] = target: T1, CcrM WT; assay: fluorescence anisotropy; 30 uM SAH; Hill h = 2.1; apparent Kd; Anisotropy: 10 nM FAM-DNA, 0-1000 nM protein, 30 uM SAH, 100 mM HEPES, 1 mM EDTA, 20 mM NaCl, pH 8, room temperature, 20 min; Trp fluorescence: same buffer plus 2 mM DTT, 500 nM protein, 60 uM sinefungin, 5 uM DNA; settings: protein: recombinant; chain copies: 2; label: 5' 6-FAM on strand 1; blunt
CcrM WT [3] = target: T1, CcrM WT; assay: fluorescence anisotropy; 30 uM SAH; Hill h = 2.5; apparent Kd; Anisotropy: 10 nM FAM-DNA, 0-1000 nM protein, 30 uM SAH, 100 mM HEPES, 1 mM EDTA, 20 mM NaCl, pH 8, room temperature, 20 min; Trp fluorescence: same buffer plus 2 mM DTT, 500 nM protein, 60 uM sinefungin, 5 uM DNA; settings: protein: recombinant; chain copies: 2; label: 5' 6-FAM on strand 1; blunt
CcrM R350A = CcrM R350A (Caulobacter crescentus, UniProt P0CAW2 1-358, R350A); assay: fluorescence anisotropy; 30 uM SAH; Hill h = 1.3; apparent Kd, above tested range 0-1000 nM; Anisotropy: 10 nM FAM-DNA, 0-1000 nM protein, 30 uM SAH, 100 mM HEPES, 1 mM EDTA, 20 mM NaCl, pH 8, room temperature, 20 min; Trp fluorescence: same buffer plus 2 mM DTT, 500 nM protein, 60 uM sinefungin, 5 uM DNA; settings: protein: recombinant; chain copies: 2; label: 5' 6-FAM on strand 1; blunt
CcrM R350A, sequence (P0CAW2 whole entry R350A): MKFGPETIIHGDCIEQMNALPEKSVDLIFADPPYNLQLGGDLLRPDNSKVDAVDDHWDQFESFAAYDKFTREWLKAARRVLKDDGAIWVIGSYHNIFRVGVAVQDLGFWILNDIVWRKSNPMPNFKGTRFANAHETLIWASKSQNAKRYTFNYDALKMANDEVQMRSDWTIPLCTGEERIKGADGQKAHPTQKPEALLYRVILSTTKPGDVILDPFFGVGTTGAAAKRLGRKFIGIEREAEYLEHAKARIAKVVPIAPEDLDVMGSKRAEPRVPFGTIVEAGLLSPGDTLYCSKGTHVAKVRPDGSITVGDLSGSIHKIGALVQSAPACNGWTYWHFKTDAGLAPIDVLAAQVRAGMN

T1 sequence (P0CAW2 whole entry): as the sequence (P0CAW2 whole entry R350A) above, with A350R counted along it

TCACTGTACTCTGACTCGCCTGACATGAC (ssDNA) [cognate ssDNA]: binds (CcrM WT [1]).

B1: NC-FAM (dsDNA)
DNA 1: TCACTGTACTCTGACTGGCCTGACATGAC
DNA 2: GTCATGTCAGGCCAGTCAGAGTACAGTGA
modifications: N6-methyl-A at position 14 (5' to 3') of strand 2
In the case of B1, the Kd (CcrM WT [2]) is reported as 135 ± 7.6 nM.

B2: C1-FAM (dsDNA)
DNA 1: TCACTGTACTCTGACTCGCCTGACATGAC
DNA 2: GTCATGTCAGGCGAGTCAGAGTACAGTGA
modifications: N6-methyl-A at position 14 (5' to 3') of strand 2 (hemimethylated)
Work on B2 yielded a Kd (CcrM WT [3]) of 150 ± 5.4 nM and a Kd (CcrM R350A) of 2110 ± 193 nM.
